Assay results: PMC3718800, “Structural and Functional Perturbation of Giardia lamblia Triosephosphate Isomerase by Modification of a Non-Catalytic, Non-Conserved Region” (PLoS ONE, 2013)

Assay: TIM activity coupled assay, kinetic constants of WT GlTIM and C222 mutants with GAP
Assay type: biochemical, Giardia lamblia
Procedure: Glyceraldehyde 3-phosphate (GAP), buffers, salts and all the other analytical grade reagents were acquired from Sigma–Aldrich; α-glycerol-3-phosphate dehydrogenase (α-GDH) was from Roche, crystallization screen kits were obtained from Hampton Research. Restriction enzymes, DNA polymerase and T4 DNA ligase were purchased from New England BioLabs and Invitrogene. Oligonucleotide synthesis and DNA sequencing was performed at the Unidad de Biología Molecular, Instituto de Fisiología Celular, UNAM. Protein concentration was determined by the bicinchoninic acid method or by absorbance at 280 nm for pure GlTIM (ε280 = 26600 M^-1cm^-1). The TIM activity was determined at 25°C by a coupled assay, following the decrease in absorbance at 340 nm. The standard reaction mixture contained 100 mM triethanolamine/10 mM EDTA, pH 7.4 (TE buffer), 1 mM GAP, 0.2 mM NADH, and 0.9 units of α-GDH (20 μg/mL); the reaction was initiated by addition of 5 ng/mL of WT, C222V or C222M GlTIM, 10 ng/mL of C222N, 20 ng/mL of C222D or C222F, and 200 ng/mL of C222K. Kinetic, binding and stability data were analyzed by non-linear regression calculations with Origin software.
Determination of Km and Vmax was performed by fitting initial velocity data at GAP concentrations ranging from 0.3 to 3 mM to the Michaelis-Menten equation (v = Vmax•S/Km+S) by non-linear regression calculations. […]

B1: GlTIM: recombinant wild type triosephosphate isomerase of Giardia lamblia (protein, UniProt P36186 1-257, looked up)
Triosephosphate isomerase: MPARRPFIGGNFKCNGSLDFIKSHVAAIAAHKIPDSVDVVIAPSAVHLSTAIAANTSKQLRIAAQNVYLEGNGAWTGETSVEMLQDMGLKHVIVGHSERRRIMGETDEQSAKKAKRALEKGMTVIFCVGETLDERKANRTMEVNIAQLEALGKELGESKMLWKEVVIAYEPVWSIGTGVVATPEQAEEVHVGLRKWFAEKVCAEGAQHIRIIYGGSANGSNCEKLGQCPNIDGFLVGGASLKPEFMTMIDILTKTRT
Q: Which results are given for B1?
A: Vmax (GAP 0.3 to 3 mM, 25°C, pH 7.4): 8050 ± 444 µmol/min/mg; kcat x 10^5 (calculated from Vmax, molecular mass 27.7 kDa): 4.4 x 10^5 min^-1
